Source: US20240002497A1 (Merck Sharp & Dohme, published 2024)
Where a chain is given by its changes, count along the chain named. Blank lines part the entries; values can stand above or below the binder they belong to.

Assays:
[1] = target: T1, huNav1.7α + β1-β2-β3 (human, UniProt Q15858 1-1988; A5A6L6 19-218; O60939 30-215; Q2KI11 23-215); experiment: binding FACS, CHO FlpIn
T1 construct: also called huNav1.7-beta1-beta2-beta3; huNav1.7-β1-β2-β3
Method: (§1) Binding of the ISVDs to cell-expressed Nav1.7α was detected via murine anti-Flag (Sigma, catalog #F1804). Briefly, cells were resuspended in FACS buffer (PBS, 10% FBS, NaN₃) and transferred to a 96-well V-bottom plate at 1×10^5 cells/well. Purified FLAG3-tagged ISVD was diluted in FACS buffer and added to the cells for 30 minutes at 4° C. […] Prior to the read-out, the samples were resuspended in 1 μg/mL propidium iodide (Sigma, catalog #P4170) to exclude dead cells. Between each step, the cells were centrifuged for 5 minutes at 200 grams and washed with 100 μL/well FACS buffer.

[2] = target: T2, rhNav1.7α + β1-β2-β3 (rhesus monkey); experiment: binding FACS, CHO FlpIn
T2 construct: also called rhNav1.7-beta1-beta2-beta3; rhNav1.7-β1-β2-β3
Method: as §1

[3] = target: T3, huNav1.7α + β1-β2-β3 (human, UniProt Q15858 1-1988; A5A6L6 19-218; O60939 30-215; Q2KI11 23-215); experiment: binding FACS, CHO FlpIn cells
T3 construct: Cell line (CHO FlpIn, HEK FlpIn, transient HEK293T) is named under assay; also called huNav1.7-beta1-beta2-beta3; human Nav1.7α with Navβ1, Navβ2 and Navβ3
Method: as §1

[4] = target: T4, rhNav1.7α + β1-β2-β3 (rhesus monkey); experiment: binding FACS, CHO FlpIn cells
T4 construct: also called rhNav1.7-beta1-beta2-beta3; rhesus Nav1.7α
Method: as §1

B4: F010302340 (VHH)
VHH: EVQLVESGGGVVQPGGSLRLSCAASHRAFIRDLFTGWYRRAPGKQRELVARIYESGNTNYADSAKGRFTISRDNAKKTVYLQMNSLRPEDTALYYCLFSGTISTGREYRSGDYWGQGTLVTVSS
Bmax [1]: 100%
EC50 [1]: 4.6 nM
Bmax [2]: 96%
EC50 [2]: 13 nM

B5: F010302335 (VHH)
VHH: B4 VHH with H26S, A28Q, L33V, N59Q
Bmax [1]: 100%
EC50 [1]: 4.1 nM
Bmax [2]: 84%
EC50 [2]: 13 nM

B9: F010302338 (VHH)
VHH: B4 VHH with L33V, N59Q
Bmax [1]: 100%
EC50 [1]: 3.4 nM
Bmax [2]: 100%
EC50 [2]: 7.9 nM

B12: F010302365 (VHH)
VHH: B4 VHH with H26S, L33V, E54N, S55G
Bmax [3]: 100%
EC50 [3]: 3.1 nM
binding result [4]: no binding

B13: F010302363 (VHH)
VHH: B4 VHH with L33V, R40Q, S55G, N59Q, A64V
Bmax [3]: 100%
EC50 [3]: 4.2 nM
Bmax [4]: 96%
EC50 [4]: 9.3 nM

B15: F010302364 (VHH)
VHH: B4 VHH with R40Q, A64V
Bmax [3]: 100%
EC50 [3]: 7.2 nM
Bmax [4]: 74%
EC50 [4]: 17 nM

B17: F010302362 (VHH)
VHH: B4 VHH with L33V, R40Q, N59Q, A64V
Bmax [3]: 100%
EC50 [3]: 5.4 nM
Bmax [4]: 89%
EC50 [4]: 14 nM

B18: F010302359 (VHH)
VHH: B4 VHH with H26S, A28Q, L33V, R40Q, N59Q, A64V
Bmax [3]: 100%
EC50 [3]: 6.4 nM
Bmax [4]: 66%
EC50 [4]: 24 nM

Next, values leading:

Bmax [1]: 100%
EC50 [1]: 4 nM
Bmax [2]: 70%
EC50 [2]: 11 nM
B1: F010302334 (VHH)
VHH: B4 VHH with H26S, A28Q, L33V, E54N, S55E, N59Q

Bmax [1]: 100%
EC50 [1]: 6.4 nM
Bmax [2]: 84%
EC50 [2]: 18 nM
B2: F010302343 (VHH)
VHH: B4 VHH with H26S, A28Q, L33V, R40Q, N59Q

Bmax [1]: 100%
EC50 [1]: 4.3 nM
Bmax [2]: 78%
EC50 [2]: 13 nM
B3: F010302344 (VHH)
VHH: B4 VHH with A28Q, L33V, R40Q, E54N, S55E, N59Q

Bmax [1]: 100%
EC50 [1]: 3.6 nM
Bmax [2]: 79%
EC50 [2]: 9.7 nM
B6: F010302336 (VHH)
VHH: B4 VHH with A28Q, L33V, E54N, S55E, N59Q

Bmax [1]: 100%
EC50 [1]: 4 nM
Bmax [2]: 61%
EC50 [2]: 16 nM
B7: F010302342 (VHH)
VHH: B4 VHH with H26S, A28Q, L33V, R40Q, E54N, S55E, N59Q

Bmax [1]: 100%
EC50 [1]: 4.9 nM
Bmax [2]: 96%
EC50 [2]: 12 nM
B8: F010302345 (VHH)
VHH: B4 VHH with A28Q, L33V, R40Q, S55G, N59Q

Bmax [3]: 100%
EC50 [3]: 6.7 nM
Bmax [4]: 95%
EC50 [4]: 14 nM
B10: F010302348 (VHH)
VHH: B4 VHH with R40Q

Bmax [3]: 100%
EC50 [3]: 3.5 nM
Bmax [4]: 58%
EC50 [4]: 15 nM
B11: F010302360 (VHH)
VHH: B4 VHH with A28Q, L33V, R40Q, E54N, S55E, N59Q, A64V

Bmax [3]: 100%
EC50 [3]: 4.3 nM
Bmax [4]: 78%
EC50 [4]: 13 nM
B14: F010302344 (VHH)
VHH: B4 VHH with A28Q, L33V, R40Q, E54N, S55E, N59Q

Bmax [3]: 100%
EC50 [3]: 4.2 nM
Bmax [4]: 96%
EC50 [4]: 7.9 nM
B16: F010302354 (VHH)
VHH: B4 VHH with L33V, N59Q, A64V
